Results on 1 molecule are retold here after patent US20100260773A1 (UCB, published 2010).

One may read the Kd as the concentration at which binding is half-saturated. What is called koff is a measure of how fast the partners let go of each other. One may read the kon as the second-order rate constant of association.

“And” between values parts separate entries of the source, which are not always exact repeats. Identical values can stand only once.

The target of assay [1] is T1, human IL-13 (wild type) (human, UniProt P35225 35-146). As to the kind of experiment: cell-based or functional assay.
The target in assay [2] is T2, cynomolgus monkey IL-13 (cynomolgus monkey, UniProt Q0PW92 21-132). In words: cell-based or functional assay.
A further assay addresses T3, Rat IL-13 (rat, UniProt P42203 19-131, limits assumed).
T3 sequence (looked up): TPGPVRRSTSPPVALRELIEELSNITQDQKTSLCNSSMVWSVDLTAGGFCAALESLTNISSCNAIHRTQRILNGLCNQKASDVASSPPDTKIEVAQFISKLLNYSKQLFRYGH
In words: cell-based or functional assay.

In assay [3] the target is T1, human IL-13 (wild type). In words: Biacore 3000 SPR; purified Ab652 Fab captured by anti-human F(ab')2, hIL-13 as analyte; average of the table's runs. How it is done:
(§1) BIA (Biamolecular Interaction Analysis) was performed using a BIAcore 3000 (BIAcore AB). Affinipure F(ab′)₂ Fragment, goat anti-human IgG, F(ab′)₂ fragment specific (Jackson ImmunoResearch) was immobilised on a CM5 Sensor Chip via amine coupling chemistry to a capture level of ≈4000 response units (RUs). A blank surface was prepared in a similar way, omitting the F(ab′)₂ fragment from the procedure. HBS-EP buffer (10 mM HEPES pH 7.4, 0.15 M NaCl, 3 mM EDTA, 0.005% Surfactant P20, BIAcore AB) was used as the running buffer with a flow rate of 10 μl/min. A 10 μl injection of Ab652 Fab at ˜0.2 μg/mL was used for capture by the immobilised anti-human IgG-F(ab′)₂ to allow sufficient IL-13 binding but also to minimise mass transport limited binding effects. Human IL13 was titrated over the captured Ab652 at various concentrations (10 nM to 0.31 nM) at a flow rate of 30 μL/min The surface was regenerated by a 10 μl it injection of 40 mM HCl, followed by a 5 μl it injection of 5 mM NaOH at a flowrate of 10 μL/min
(§2) Background subtraction binding curves were analysed using the BIAevaluation software (version 3.2) following standard procedures. Kinetic parameters were determined from the fitting algorithm.
A general note: SPR reads the build-up and loss of mass on a sensor chip optically.

Assay [4] deals with T2, cynomolgus monkey IL-13. As to the kind of experiment: cell-based or functional assay. This is another data set of the same source.
Assay [5] concerns the target variant human IL-13 (R130Q) (human) (UniProt P35225). As to the kind of experiment: cell-based or functional assay.
Assay [6] concerns the target T1, human IL-13 (wild type). In words: Biacore 3000 SPR; Ab652 Fab captured by immobilised anti-human F(ab')2, hIL-13 titrated as analyte; average of 3 determinations. How it is done: as §1, §2

T1 sequence (P35225 35-146 limits assumed): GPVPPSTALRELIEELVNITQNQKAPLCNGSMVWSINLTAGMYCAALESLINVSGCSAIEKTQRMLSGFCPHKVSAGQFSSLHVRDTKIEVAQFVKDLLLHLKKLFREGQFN
T2 sequence (Q0PW92 entry or part of it): as the sequence (P35225 35-146 limits assumed) above, with G1S, R10K, M42V, S67N, H83R, L100V counted along it
variant human IL-13 (R130Q) (human), sequence (P35225 35-146, stated change not applied): as the sequence (P35225 35-146 limits assumed) above

B1: Ab652 (humanised anti-human IL-13 Fab, graft gL1gH2) (Fab, V domains shown)
VH: QVTLKESGPVLVKPTETLTLTCTVSGFSLTNYHVQWIRQPPGKALEWLGVMWSDGDTSFNSVLKSRLTISRDTSKSQVVLTMTNMDPVDTATYYCARDGTIAAMDYFDYWGQGTLVTVSS
VL: DIQMTQSPSSLSASVGDRVTITCLASEDISNYLAWYQQKPGKAPKLLIYHTSRLQDGVPSRFSGSGSGTDFTLTISSLQPEDFATYYCQQGYRFPLTFGGGTKVEIKR
notes: also called Ab652 Fab
Turning to B1, in the assay with human IL-13 (wild type) [1], the “IC50 Ab652 Fab, HEK-Blue STAT-6 assay; IL-13 source E. coli-derived, wild type (250 pg/ml)” value turned out to be 1.05 ng/mL; the “IC50 Ab652 Fab, HEK-Blue STAT-6 assay; IL-13 source mammalian (rat fibroblasts), wild type (250 pg/ml)” value is 0.57 ng/mL; the “IC50 Ab652 Fab, HEK-Blue STAT-6 assay; IL-13 source natural human T cell, wild type (250 pg/ml)” value was 2.12 ng/mL; the “IC50 Ab652 Fab, HEK-Blue STAT-6 assay; nebulised Fab (IL-13 source of this row not given)” value stood at 1.15 ng/mL. Also, the “IC50 Ab652 Fab, HEK-Blue STAT-6 assay; cynomolgus IL-13 on human receptor (1/4,000 = 250 pg/ml)” value with cynomolgus monkey IL-13 [2] came out at 1.61 ng/mL. The “IC50 of Ab652, HEK Blue assay; recombinant mammalian cell derived rat IL-13 (transfected HEK293 supernatant), n = 1” value with Rat IL-13 is 953 ng/ml and 20000 pM. Besides, in the assay with human IL-13 (wild type) [3], the Kd was 0.0134 nM and 0.013 nM; the koff was 6.27e-05 s⁻¹; the kon is 4.82e+06 M⁻¹ s⁻¹. Further, in the assay with cynomolgus monkey IL-13 [4], the “neutralisation potency against cynomolgus IL-13 relative to human IL-13 from rat fibroblasts, HEK Blue assay” value was at most 3 fold. In addition, the IC50 Ab652 Fab, HEK-Blue STAT-6 assay; IL-13 source natural human T cell, R130Q variant (250 pg/ml) in assay [5] worked out at 1.66 ng/mL. In the assay with human IL-13 (wild type) [6], the Kd is 0.0152 nM and 0.015 nM; the koff is 6.52e-05 s⁻¹; the kon is 4.51e+06 M⁻¹ s⁻¹.
